Publication PMC4822319, “Quaternary structure of a G-protein-coupled receptor heterotetramer in complex with Gi and Gs” (BMC Biology, 2016)

B1: adenosine A2A receptor fused to mCherry (A2AR-mCherry) (receptor, human, UniProt P29274 1-412, looked up)
chain: MPIMGSSVYITVELAIAVLAILGNVLVCWAVWLNSNLQNVTNYFVVSLAAADIAVGVLAIPFAITISTGFCAACHGCLFIACFVLVLTQSSIFSLLAIAIDRYIAIRIPLRYNGLVTGTRAKGIIAICWVLSFAIGLTPMLGWNNCGQPKEGKNHSQGCGEGQVACLFEDVVPMNYMVYFNFFACVLVPLLLMLGVYLRIFLAARRQLKQMESQPLPGERARSTLQKEVHAAKSLAIIVGLFALCWLPLHIINCFTFFCPDCSHAPLWLMYLAIVLSHTNSVVNPFIYAYRIREFRQTFRKIIRSHVLRQQEPFKAAGTSARVLAAHGSDGEQVSLRLNGHPPGVWANGSAPHPERRPNGYALGLVSGGSAQESQGNTGLPDVELLSHELKGVCPEPPGLDDPLAQDGAGVS
notes: adenosine A2A receptor, human, UniProt P29274; The construct for single-particle tracking is not described in the main text; details may stand in Additional file 11 (Supplementary methods); also called A2A-mCherry; A2A-Cherry; source: HEK-293T, transiently transfected, on living cells; not shown: mCherry, C-terminal, kept

Key:
[1] = biological target: adenosine A1 receptor fused to a hemi-Rluc8 (A1R-nRluc8) or to a hemi-Venus (A1R-nVenus) (human) (UniProt P30542)
Chain of adenosine A1 receptor fused to a hemi-Rluc8 (A1R-nRluc8) or to a hemi-Venus (A1R-nVenus) (human) (P30542 whole entry, the tested form may be a part): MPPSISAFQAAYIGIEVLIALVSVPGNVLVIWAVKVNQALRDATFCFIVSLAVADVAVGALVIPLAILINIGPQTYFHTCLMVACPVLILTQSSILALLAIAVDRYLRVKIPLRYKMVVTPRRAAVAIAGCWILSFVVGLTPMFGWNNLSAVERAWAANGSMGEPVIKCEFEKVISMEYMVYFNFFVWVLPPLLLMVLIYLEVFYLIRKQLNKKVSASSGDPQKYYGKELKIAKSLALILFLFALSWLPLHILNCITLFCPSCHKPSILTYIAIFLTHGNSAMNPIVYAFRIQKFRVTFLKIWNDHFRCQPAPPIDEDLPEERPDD

[2] = biological target: the molecule itself; test: single-particle tracking and brightness analysis (TIRFM); living HEK-293T cells expressing A1R-GFP alone or A2AR-mCherry alone; number of receptors in a particle from the brightness distribution of the individual particles

| Molecule | decrease of BRETmax of the complementation BRET (A1R and A2AR fused to hemi-Rluc8 and hemi-Venus, the heterotetramer) after pertussis toxin (10 ng/ml, 16 h); endogenous Gi [1] [%] | stoichiometry N [2] |
| --- | --- | --- |
| α-subunit of Gi fused to Rluc (Gi-Rluc) (from UniProt P63096 1-354) (natural protein) | 35 |  |
| B1 |  | 3 |
